In publication PMC10745484:

Target: recombinant Fe-S cluster assembly ATP-binding protein (SufC) (Streptococcus pneumoniae strain D39)
Assay: SPR; Biacore X100; rSufC immobilised on a CM5 chip (1000 RU); plasminogen or BSA flowed at 6.25 to 100 nM, 25 °C, 100 mM HEPES pH 7.4, 150 mM NaCl, 3 mM EDTA, 0.005% surfactant P20; apparent constants

plasminogen from human plasma (natural protein)
Kd: 79.5 nM | koff: 0.00156 s⁻¹ | kon: 19600 M⁻¹ s⁻¹
